Consider ten molecules from patent publication US20240132589A1 (ONCORESPONSE, published 2024).

For orientation: EC50 means the concentration needed to bring the measured effect to its halfway point. For orientation: IC50 means the concentration that gives 50% inhibition. Lower therefore signals higher potency.

For assay [1], the target named is T1, Recombinant human LILRB2 protein (ELISA antigen) (human, UniProt Q8N423 22-460).
T1 construct: also called LILRB2-His; recombinant LILRB2
The assay can be described thus: ELISA, immobilized LILRB2-His; conditioned media of transient transfections. How it is done: (§1) To confirm binding to human and cynomolgus LILRB2, antibodies in supernatants were evaluated for binding by enzyme-linked immunosorbent assay (ELISA). Recombinant LILRB2 proteins (human: SEQ ID NO: 48; cynomolgus) were diluted in PBS to 2 μg/mL and added to 384-well high-binding ELISA plates (Greiner Bio-One Microlon™) at 25 μL/well and incubated at 4° C. overnight. The plates were washed three times with Wash Buffer (0.05% Tween® 20 in PBS), using a microplate washer and then blocked with 90 μL/well of ELISA Blocking Buffer A (1% BSA in PBS) for 1 hour at room temperature (RT). After blocking, 25 μL/well of LILRB2 antibodies or isotype control were added to the plates and incubated for 1 hour at RT. After primary antibody binding, plates were washed three times with Wash Buffer using a microplate washer. Secondary detection antibody (HRP-goat anti-rabbit Fab fragment) was diluted to 1:3000 in assay diluent (1% BSA in PBS) and 25 μL/well was added to plates and incubated at RT protected from light for 1 hour. Following incubation, plates were washed four times with Wash Buffer, using a microplate washer. After removal of the final wash, 25 μL/well of 1-Step™ Ultra TMB-ELISA Substrate Solution (Thermo Fisher, No. 34028) was added and plates were incubated for 5-10 min at RT, protected from light. After development, the reaction was stopped by addition of 25 μL/well of 0.3 M HCl, and plates were read using an EnVision (Perkin Elmer) microplate reader at 450 nm. EC₅₀ values were calculated based on log concentration of the primary antibodies at optical density at 450 nm.
Twenty-five IgG4 variants were expressed in mammalian cell culture as a combinatorial library of the five light and five heavy chains. In addition, B2A-IgG4 was included as a transfection control. The conditioned media from these transient transfections were assayed for human IgG concentration. A plate-based ELISA (see Example 2) was performed in which LILRB2-His was immobilized, and binding of humanized mAb variants was detected via an anti-human IgG4 HRP-labeled secondary antibody. The parental rabbit/human chimera clone transfection served as the benchmark EC₅₀ positive control.
On the technique in general: In an ELISA, binding on a coated surface is turned into a signal by an enzyme label.

Assay [2] addresses T2, LILRB2-Fc protein (human, UniProt Q8N423 22-460, limits assumed).
T2 construct: also called human LILRB2-Fc; not shown: Fc part
Description: blocking ELISA, LILRB2-Fc binding to coated monomer HLA-G; Exp I. How it is done:
(§2) Tumor-associated HLA-G is an HLA Class I ligand for LILRB2. Binding of HLA-G to LILRB2 induces an immune suppressive signal in LILRB2 expressing myeloid cells. To determine if the anti-LILRB2 antibodies block the HLA-G-LILRB2 interaction and prevent the induction of an inhibitory signal, blocking ELISA assays in a dose titration were performed. 384-well plates were coated with monomer HLA-G (Fred Hutchinson Cancer Research Center, No. bHLA-G) at a concentration of 5 μg/mL, diluted in PBS, then plates were incubated at RT for 1 hour. Plates were rinsed with Wash Buffer three times, then blocked with Blocking Buffer A for 30 minutes at RT. During blocking incubation step, LILRB2-Fc protein and antibody titrations were prepared in Blocking Buffer A. LILRB2-Fc protein was then incubated with antibody titrations for 30 minutes at RT to allow for binding prior to addition onto plate. Plates were rinsed three times with Wash Buffer, then 25 μL of protein/antibody mixture was added per well and incubated for 1 hour at RT. Following antibody incubation, plates were washed three times with Wash Buffer. Anti-human IgG Fc-HRP secondary antibody was diluted and added at 25 μL/well. Plates were incubated in the dark for 1 hour at RT. Following secondary antibody incubation, plates were washed four times with Wash Buffer. 25 μL/well ultra-neat TMB was added per well for development and incubated for 5 minutes at RT. Reaction was stopped using 0.3 M HCl (25 μL/well). Absorbance was read at 450 nm using the Envision. The IC₅₀ for HLA-G blocking by clone B2A-IgG4 was 0.066 μg/mL.
(§3) Select humanized IgG4 variant antibodies were tested for their ability to block binding of human LILRB2-Fc to monomer HLA-G by ELISA, using the method described in Example 7.

The target in assay [3] is T2, LILRB2-Fc protein. Description: blocking ELISA, LILRB2-Fc binding to coated monomer HLA-G; Exp II. As to the method:
as §2, §3

For assay [4], the target named is T3, Human LILRB2 on stably transduced HEK293T cells (human, UniProt Q8N423 22-597).
T3 construct: Lentiviral transduction (G&P Biosciences LTV2992); also called HEK293T-LILRB2; LILRB2-expressing HEK293T cells
T3 sequence (Q8N423 other isoform, or with tags, fused parts or gaps limits assumed): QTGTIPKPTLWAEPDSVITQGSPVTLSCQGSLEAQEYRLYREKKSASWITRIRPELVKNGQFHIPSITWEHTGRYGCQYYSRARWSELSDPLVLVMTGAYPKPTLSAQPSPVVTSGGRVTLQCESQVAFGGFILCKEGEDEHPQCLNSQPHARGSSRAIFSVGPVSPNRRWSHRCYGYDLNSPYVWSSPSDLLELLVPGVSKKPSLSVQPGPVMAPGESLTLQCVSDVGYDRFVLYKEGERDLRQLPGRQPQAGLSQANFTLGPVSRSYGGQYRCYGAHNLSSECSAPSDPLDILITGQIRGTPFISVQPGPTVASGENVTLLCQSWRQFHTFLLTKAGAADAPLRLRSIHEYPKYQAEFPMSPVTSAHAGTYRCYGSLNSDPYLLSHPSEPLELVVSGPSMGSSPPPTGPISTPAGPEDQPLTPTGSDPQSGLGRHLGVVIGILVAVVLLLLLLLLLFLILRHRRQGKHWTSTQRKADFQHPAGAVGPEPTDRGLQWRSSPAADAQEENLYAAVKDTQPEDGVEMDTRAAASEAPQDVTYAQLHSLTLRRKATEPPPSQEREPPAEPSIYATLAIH
The assay can be described thus: flow cytometry, HEK293T cells stably expressing human LILRB2. As to the method:
To confirm binding of LILRB2 antibodies, flow cytometry binding assays were performed using HEK293T cells stably expressing human LILRB2 (Example 3). […] The B2A-IgG1 and B2A-IgG4 chimeras bound the LILRB2-expressing HEK293T cells, with equivalent EC₅₀ values of 0.21 nM and 0.30 nM respectively.
(§4) Select humanized variant antibodies were purified and tested for their ability to bind human LILRB2 by ELISA, using the method described in Example 2, and binding to HEK293T cells expressing human LILRB2, using the method described in Example 4. Representative data are shown for IgG4 variants in Table 6.
(In flow cytometry, cells or beads pass a laser one at a time.)

In assay [5] the target is T1, Recombinant human LILRB2 protein (ELISA …). The assay can be described thus: ELISA, plate-coated recombinant human LILRB2. How it is done: as §1, §4

T2 sequence (Q8N423 22-460 limits assumed): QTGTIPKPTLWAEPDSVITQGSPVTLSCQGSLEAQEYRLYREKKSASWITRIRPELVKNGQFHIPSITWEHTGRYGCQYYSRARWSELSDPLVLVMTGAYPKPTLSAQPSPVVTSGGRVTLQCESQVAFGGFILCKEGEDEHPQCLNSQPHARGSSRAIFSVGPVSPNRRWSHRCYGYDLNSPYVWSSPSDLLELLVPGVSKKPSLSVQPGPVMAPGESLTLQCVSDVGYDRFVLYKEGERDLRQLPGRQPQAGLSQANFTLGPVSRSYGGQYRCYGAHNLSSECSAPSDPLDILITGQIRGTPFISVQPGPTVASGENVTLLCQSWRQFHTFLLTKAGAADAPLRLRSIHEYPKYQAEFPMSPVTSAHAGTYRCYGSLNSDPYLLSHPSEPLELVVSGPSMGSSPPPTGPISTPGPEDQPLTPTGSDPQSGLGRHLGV
T1 sequence (Q8N423 other isoform, or with tags, fused parts or gaps limits assumed): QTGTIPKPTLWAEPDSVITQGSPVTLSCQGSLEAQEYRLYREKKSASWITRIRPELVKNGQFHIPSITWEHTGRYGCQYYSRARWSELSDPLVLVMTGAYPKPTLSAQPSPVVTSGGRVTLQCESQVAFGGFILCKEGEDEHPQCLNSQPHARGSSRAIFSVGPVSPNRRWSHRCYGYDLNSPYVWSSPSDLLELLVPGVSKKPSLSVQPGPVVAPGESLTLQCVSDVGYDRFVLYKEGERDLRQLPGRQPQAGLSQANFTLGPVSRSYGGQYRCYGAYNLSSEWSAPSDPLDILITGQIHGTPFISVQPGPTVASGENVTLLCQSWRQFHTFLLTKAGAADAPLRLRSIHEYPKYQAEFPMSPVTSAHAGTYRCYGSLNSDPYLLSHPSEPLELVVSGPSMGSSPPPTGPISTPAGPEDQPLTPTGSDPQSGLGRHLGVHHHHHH

B1: B2H4-54 (antibody, V domains shown)
VH: EVQLLESGGGLVQPGTSLTLSCAASGFSLSTYAMSWVRQAPGKGLEWIGWIYNDGSTYYAAWAKGRFTISKDTSKTTLYLQITSLRAEDTATYFCAREGDYIGYFNIWGQGTLVTVSS
VL: DIQMTQSPSSVSASVGDRVTITCQASQSIGSNLAWYQQKPGKAPKLLIYAAATLASGVPLRFSGSGSGTDFTLTISNLQPEDSATYYCQSYVSGSSDVAFGGGTKVEIK
notes: Humanized variant, human IgG4 / kappa
As for B1, the EC50 was 2.25 ng/mL in assay [1], 0.17 ng/mL in assay [4] and 2 ng/mL in assay [5]. Besides, the values for the IC50 in assay [2] and in assay [3] were 4040 ng/mL and 4090 ng/mL, respectively. Also, in assay [4], the “BMAX [gMFI]” value amounted to 10400 gMFI.

B2: B2H4-52 (antibody, V domains shown)
VH: EVQLLESGGGLVQPGTSLTLSCAASGFSLSTYAMSWVRQAPGKGLEWIGWIYNDGSTYYAAWAKGRFTISKDTSKTTLYLQITSLRAEDTATYFCAREGDYIGYFNIWGQGTLVTVSS
VL: DVVMTQSPSSVSASLGDRVTITCQASQSIGSNLAWYQQKPGQAPKLLIYAAATLASGVPSRFKGSGSGTDFTLTITSLQPADFATYYCQSYVSGSSDVAFGGGTKVEIK
notes: as for B1
Take B2: the EC50 in assay [1] was determined as 5.37 ng/mL.

B3: B2H4-43 (antibody, V domains shown)
VH: EVQLLESGGRLVQPGTSLRLSCAVSGFSLSTYAMSWVRQAPGKGLEWIGWIYNDGSTYYAAWAKGRFTISKDTSKTTLYLQMNSLTVEDTATYFCAREGDYIGYFNIWGQGTLVTVSS
VL: DIEMTQSPSSVSASVGDRVTLTCQASQSIGSNLAWYQQKPGQAPKLLIYAAATLASGVPSRFKGSGSGTDFTLTISSLQPEDFATYYCQSYVSGSSDVAFGGGTEVVVK
notes: as for B1
For the molecule B3, the EC50 in assay [1] was 4.96 ng/mL.

B4: B2H4-41 (antibody, V domains shown)
VH: EVQLLESGGRLVQPGTSLRLSCAVSGFSLSTYAMSWVRQAPGKGLEWIGWIYNDGSTYYAAWAKGRFTISKDTSKTTLYLQMNSLTVEDTATYFCAREGDYIGYFNIWGQGTLVTVSS
VL: DIQMTQSPSSLSASVGDRVTITCQASQSIGSNLAWYQLKPGQRPKLLIYAAATLASGVPSRFKGSGSGTDFTLTISSLQSEDAATYYCQSYVSGSSDVAFGGGTEVVVK
notes: as for B1
As to B4, the half-maximal effective concentration (EC50) in assay [1] was 3.76 ng/mL; in assay [4], 0.28 ng/mL; in assay [5], 3.05 ng/mL. Besides, the IC50 in assay [2] is 5780 ng/mL; in assay [3] it was 6760 ng/mL. For the same molecule, the “BMAX [gMFI]” value in assay [4] came to 10100 gMFI.

B5: B2H4-55 (antibody, V domains shown)
VH: EVQLLESGGGLVQPGTSLTLSCAASGFSLSTYAMSWVRQAPGKGLEWIGWIYNDGSTYYAAWAKGRFTISKDTSKTTLYLQITSLRAEDTATYFCAREGDYIGYFNIWGQGTLVTVSS
VL: DVVMTQTPSSVSAALGGTVTIKCQASQSIGSNLAWYQLKPGQRPKLLIYAAATLASGGSSRFKGSGSGTDFTLTISSLEPADAATYYCQSYVSGSSDVAFGGGTEVVVK
notes: as for B1
As to B5, the IC50 in assay [2] was 6890 ng/mL; in assay [3], 7170 ng/mL. For the same molecule, the “BMAX [gMFI]” value in assay [4] worked out at 10800 gMFI. The EC50 in assay [4] was 0.33 ng/mL; in assay [5] it was 2.82 ng/mL.

B6: B2H4-24 (antibody, V domains shown)
VH: EVQLVESGGDLATPGGSLRLSCAVSGFSLSTYAMSWVRQAPGKGLEWVGWIYNDGSTYYAAWAKGRFTISKDTSKTTVYLQMTSLRAEDTALYFCAREGDYIGYFNIWGQGTLVTVSS
VL: DIQMTQSPSSVSASVGDRVTITCQASQSIGSNLAWYQQKPGKAPKLLIYAAATLASGVPLRFSGSGSGTDFTLTISNLQPEDSATYYCQSYVSGSSDVAFGGGTKVEIK
notes: as for B1
Regarding B6, the EC50 was determined as 3.23 ng/mL in assay [1], 0.35 ng/mL in assay [4] and 2.81 ng/mL in assay [5]. Moreover, the IC50 was 7010 ng/mL in assay [2] and 7500 ng/mL in assay [3]. In addition, in assay [4], the “BMAX [gMFI]” value amounted to 10500 gMFI.

B7: B2H4-25 (antibody, V domains shown)
VH: EVQLVESGGDLATPGGSLRLSCAVSGFSLSTYAMSWVRQAPGKGLEWVGWIYNDGSTYYAAWAKGRFTISKDTSKTTVYLQMTSLRAEDTALYFCAREGDYIGYFNIWGQGTLVTVSS
VL: DVVMTQTPSSVSAALGGTVTIKCQASQSIGSNLAWYQLKPGQRPKLLIYAAATLASGGSSRFKGSGSGTDFTLTISSLEPADAATYYCQSYVSGSSDVAFGGGTEVVVK
notes: as for B1
For B7, the EC50 in assay [1] worked out at 4.56 ng/mL; in assay [4] it was 0.35 ng/mL; in assay [5], 2.88 ng/mL. Besides, the IC50 was 7640 ng/mL in assay [2] and 8290 ng/mL in assay [3]. The “BMAX [gMFI]” value in assay [4] was determined as 10200 gMFI.

B8: B2H4-45 (antibody, V domains shown)
VH: EVQLLESGGRLVQPGTSLRLSCAVSGFSLSTYAMSWVRQAPGKGLEWIGWIYNDGSTYYAAWAKGRFTISKDTSKTTLYLQMNSLTVEDTATYFCAREGDYIGYFNIWGQGTLVTVSS
VL: DVVMTQTPSSVSAALGGTVTIKCQASQSIGSNLAWYQLKPGQRPKLLIYAAATLASGGSSRFKGSGSGTDFTLTISSLEPADAATYYCQSYVSGSSDVAFGGGTEVVVK
notes: as for B1
Consider B8, for which the values for the EC50 in assay [1], in assay [4] and in assay [5] were 3.61 ng/mL, 0.31 ng/mL and 2.3 ng/mL, respectively. Further, the IC50 in assay [2] worked out at 6520 ng/mL; in assay [3] it was 7120 ng/mL. The “BMAX [gMFI]” value in assay [4] turned out to be 10500 gMFI.

B9: B2H4-11 (antibody, V domains shown)
VH: QVQLEESGGRVVQPGRSLRLSCAASGFSLSTYAMSWVRQAPGKGLEWIGWIYNDGSTYYAAWAKGRFTISKDTSKTTVFLQMNSLKPDDTATYFCAREGDYIGYFNIWGQGTLVTVSS
VL: DIQMTQSPSSLSASVGDRVTITCQASQSIGSNLAWYQLKPGQRPKLLIYAAATLASGVPSRFKGSGSGTDFTLTISSLQSEDAATYYCQSYVSGSSDVAFGGGTEVVVK
notes: as for B1
On to B9, for which the results for the EC50 in assay [1], in assay [4] and in assay [5] were 4.2 ng/mL, 0.32 ng/mL and 3.98 ng/mL, respectively. In addition, the IC50 in assay [2] came to 7310 ng/mL; in assay [3], 7990 ng/mL. Besides, the “BMAX [gMFI]” value in assay [4] is 9840 gMFI.

B10: B2H4-44 (antibody, V domains shown)
VH: EVQLLESGGRLVQPGTSLRLSCAVSGFSLSTYAMSWVRQAPGKGLEWIGWIYNDGSTYYAAWAKGRFTISKDTSKTTLYLQMNSLTVEDTATYFCAREGDYIGYFNIWGQGTLVTVSS
VL: DIQMTQSPSSVSASVGDRVTITCQASQSIGSNLAWYQQKPGKAPKLLIYAAATLASGVPLRFSGSGSGTDFTLTISNLQPEDSATYYCQSYVSGSSDVAFGGGTKVEIK
notes: as for B1
As to B10, the concentration giving a half-maximal response (EC50) is 4.6 ng/mL in assay [1], 0.31 ng/mL in assay [4] and 2.84 ng/mL in assay [5]. For the same molecule, the IC50 in assay [2] was found to be 7040 ng/mL; in assay [3], 7290 ng/mL. Moreover, in assay [4], the “BMAX [gMFI]” value is 10900 gMFI.
